According to paper PMC4361793:

Experiments:
[1] = molecular target: mussel foot protein-3 slow (mfp-3s), hydrophobic variant (Mytilus californianus); assay: QCM-D
[2] = molecular target: mussel foot protein-3 slow (mfp-3s), hydrophobic variant (Mytilus californianus); assay: surface forces apparatus

Row | adsorbed hydrated mass after adding mfp-3s to TiO2 pre-exposed to COL1A1 [1] [ng/cm^2] | total adsorbed hydrated mass of COL1A1/mfp-3s on TiO2 [1] [ng/cm^2] | cohesive energy Wc of mfp-3s films with COL1A1 between them [2] [mJ/m^2] | cohesive energy Wc (tc ~ 2 min) [2] [mJ/m^2] | Substance
1 | 209 | 445 | 7.2 |  | rat-tail tropocollagen type-1 (COL1A1) (from UniProt P02454 152-1207; P02466 86-1125) (natural protein)
2 |  |  |  | 5.4 | mussel foot protein-3 slow (mfp-3s), hydrophobic variant (natural protein)
